In patent publication US20230322953A1 (HARBOUR BIOMED SHANGHAI, published 2023):

Tests used:
[1] = target: T1, human BCMA on NCI-H929 cells (ATCC, CRL-9068) (human, UniProt Q02223 1-184); assay: cell-based or functional assay
T1 sequence (looked up): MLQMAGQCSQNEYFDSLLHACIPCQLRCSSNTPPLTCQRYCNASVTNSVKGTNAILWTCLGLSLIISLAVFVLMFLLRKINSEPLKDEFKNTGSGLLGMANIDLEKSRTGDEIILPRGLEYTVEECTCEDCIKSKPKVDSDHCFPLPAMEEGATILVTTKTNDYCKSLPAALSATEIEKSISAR

[2] = target: T1, human BCMA on NCI-H929 cells (ATCC, …); assay: cell-based or functional assay; remark: listed apart in the source
[3] = target: T1, human BCMA on NCI-H929 cells (ATCC, …); assay: cell-based or functional assay; remark: listed apart in the source
[4] = target: T2, human CD3 (TCR/CD3 complex) on human T cells (human, UniProt P07766 23-207); assay: flow cytometry (FACS) on human T cells, Experiment 3
T2 construct: whole, on cells

[5] = target: T3, cynomolgus monkey CD3 (TCR/CD3 complex) on cynomolgus monkey T cells (cynomolgus monkey); assay: flow cytometry (FACS) on cynomolgus monkey T cells
T3 construct: whole, on cells

[6] = target: T4, cynomolgus monkey BCMA (ACRO Biosystems, #BCA-C82F4) (cynomolgus monkey, UniProt A0A2K5UD97 1-53); assay: BLI; KD for cynomolgus monkey BCMA divided by KD for human BCMA
T4 construct: Bought protein; also called cyBCMA.Fc

[7] = target: T5, biotinylated human BCMA-Fc, Avitag recombinant protein (ACRO Biosystems, #BC7-H82F0) (human, UniProt Q02223 1-54, biotinylated (Avitag)); assay: BLI (Octet Red96e), biotinylated BCMA-Fc on SA sensor, 1:1 global fitting;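 note: Anti-BCMA antibodies analysed as binding partners of the captured BCMA antigen, with reference signals removed by double referencing before kinetic fitting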
T5 construct: extracellular domain; Bought protein; also called huBCMA.Fc; recombinant human BCMA-ECD-Fc
T5 sequence (looked up): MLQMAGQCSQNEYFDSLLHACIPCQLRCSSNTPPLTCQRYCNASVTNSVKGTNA

[8] = target: T4, cynomolgus monkey BCMA (ACRO …); assay: BLI (Octet Red96e), cyBCMA.Fc on SA sensor, 1:1 global fitting

T4 sequence (A0A2K5UD97 entry or part of it): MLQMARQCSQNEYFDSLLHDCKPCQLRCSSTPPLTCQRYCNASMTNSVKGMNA
T3 sequence (Q95LI5 22-198, one chain of several): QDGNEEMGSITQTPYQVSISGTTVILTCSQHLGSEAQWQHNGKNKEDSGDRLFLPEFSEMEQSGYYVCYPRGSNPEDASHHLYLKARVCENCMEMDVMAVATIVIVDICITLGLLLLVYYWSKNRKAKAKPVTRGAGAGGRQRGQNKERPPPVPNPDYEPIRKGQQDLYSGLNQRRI
T2 sequence (P07766 23-207, one chain of several): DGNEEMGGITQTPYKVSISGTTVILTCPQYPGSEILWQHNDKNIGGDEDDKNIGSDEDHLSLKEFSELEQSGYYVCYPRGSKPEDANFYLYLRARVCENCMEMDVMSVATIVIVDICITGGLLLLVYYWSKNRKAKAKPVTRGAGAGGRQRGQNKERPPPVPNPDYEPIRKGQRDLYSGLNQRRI

B1: PR003178 (bispecific antibody, human IgG1, lambda, L234A L235A)
light: QAVVTQEPSLTVSPGGTVTLTCRSSTGAVTTSNYANWVQQKPGQAPRGLIGGTNKRAPWTPARFSGSLLGDKAALTLLGAQPEDEAEYFCALWYSNLWVFGGGTKLTVLGQPKAAPSVTLFPPSSEELQANKATLVCLISDFYPGAVTVAWKADSSPVKAGVETTTPSKQSNNKYAASSYLSLTPEQWKSHRSYSCQVTHEGSTVEKTVAPTECS
heavy: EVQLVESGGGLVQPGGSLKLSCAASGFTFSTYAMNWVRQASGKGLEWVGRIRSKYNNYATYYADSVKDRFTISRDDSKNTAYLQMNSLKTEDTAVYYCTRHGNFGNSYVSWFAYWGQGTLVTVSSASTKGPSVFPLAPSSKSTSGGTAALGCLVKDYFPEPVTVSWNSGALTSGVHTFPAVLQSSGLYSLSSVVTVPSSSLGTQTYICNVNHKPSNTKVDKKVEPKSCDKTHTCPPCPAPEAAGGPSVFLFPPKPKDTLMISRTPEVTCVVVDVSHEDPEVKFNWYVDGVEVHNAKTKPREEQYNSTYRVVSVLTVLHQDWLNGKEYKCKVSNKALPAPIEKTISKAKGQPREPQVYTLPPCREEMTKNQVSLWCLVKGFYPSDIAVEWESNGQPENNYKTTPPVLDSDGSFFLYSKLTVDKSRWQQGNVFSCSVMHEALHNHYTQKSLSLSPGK
chain: EVQLVETGGGLIQPGGSLRLSCAASGFTVSDNYMTWVRQAPGKGLEWVSVIFSGGNTYYADSVKGRFTISRDNAKNTLYLQMNSLRAEDTALYYCARRNYDDTRGTDVFDIWGQGTMVTVSSGGGGSGGGGSGGGGSEVQLVETGGGLIQPGGSLRLSCAASGFTVSDNYMTWVRQAPGKGLEWVSVIFSGGNTYYADSVKGRFTISRDNAKNTLYLQMNSLRAEDTALYYCARRNYDDTRGTDVFDIWGQGTMVTVSSASEPKSSDKTHTCPPCPAPEAAGGPSVFLFPPKPKDTLMISRTPEVTCVVVDVSHEDPEVKFNWYVDGVEVHNAKTKPREEQYNSTYRVVSVLTVLHQDWLNGKEYKCKVSNKALPAPIEKTISKAKGQPREPQVCTLPPSREEMTKNQVSLSCAVKGFYPSDIAVEWESNGQPENNYKTTPPVLDSDGSFFLVSKLTVDKSRWQQGNVFSCSVMHEALHNHYTQKSLSLSPGK
Killing EC50 (nM), PBMC + NCI-H929, + 10 ng/mL sBAFF [1]: 0.005 nM | Killing EC50 (nM), PBMC + NCI-H929, + 10 ng/ml sAPRIL [1]: 0.009 nM | Killing EC50 (nM), PBMC + NCI-H929, + 100 ng/mL sAPRIL [1]: 0.011 nM | Killing EC50 (nM), PBMC + NCI-H929, + 100 ng/mL sBAFF [1]: 0.008 nM | Killing EC50 (nM), PBMC + NCI-H929, no soluble ligand [1]: 0.007 nM | Killing EC50 (nM), PBMC + NCI-H929, + 62.5 ng/ml sBCMA [2]: 0.009 nM | Killing EC50 (nM), PBMC + NCI-H929, + 125 ng/mL sBCMA [2]: 0.014 nM | Killing EC50 (nM), PBMC + NCI-H929, + 250 ng/ml sBCMA [2]: 0.065 nM | Killing EC50 (nM), PBMC + NCI-H929, + 500 ng/ml sBCMA [2]: 0.12 nM | Killing EC50 (nM), PBMC + NCI-H929, no sBCMA [2]: 0.005 nM | IFN-γ release, EC50 [3]: 0.0595 nM | IFN-γ release, Maximum [3]: 1210 pg/mL | IL-2 release, EC50 [3]: 0.175 nM | IL-2 release, Maximum [3]: 101 pg/mL | IL-6 release, EC50 [3]: 0.0448 nM | IL-6 release, Maximum [3]: 89.7 pg/mL | IL-10 release, EC50 [3]: 0.104 nM | IL-10 release, Maximum [3]: 322 pg/mL | NCI-H929 killing, EC50 [3]: 0.0102 nM | NCI-H929 killing, Maximum killing rate % [3]: 56.8% | TNF-α release, EC50 [3]: 0.0281 nM | TNF-α release, Maximum [3]: 1330 pg/mL | Maximum MFI [4]: 23900 MFI | Maximum MFI [5]: 10700 MFI | KD ratio (cy BCMA/hu BCMA) [6]: 1.35 | Kd [7]: 0.236 nM | koff [7]: 0.000117 s⁻¹ | kon [7]: 494000 M⁻¹ s⁻¹ | Kd [8]: 0.319 nM | koff [8]: 0.000262 s⁻¹ | kon [8]: 822000 M⁻¹ s⁻¹

B2: PR002953 (bispecific antibody, human IgG1, lambda, L234A L235A)
light: B1 light
heavy: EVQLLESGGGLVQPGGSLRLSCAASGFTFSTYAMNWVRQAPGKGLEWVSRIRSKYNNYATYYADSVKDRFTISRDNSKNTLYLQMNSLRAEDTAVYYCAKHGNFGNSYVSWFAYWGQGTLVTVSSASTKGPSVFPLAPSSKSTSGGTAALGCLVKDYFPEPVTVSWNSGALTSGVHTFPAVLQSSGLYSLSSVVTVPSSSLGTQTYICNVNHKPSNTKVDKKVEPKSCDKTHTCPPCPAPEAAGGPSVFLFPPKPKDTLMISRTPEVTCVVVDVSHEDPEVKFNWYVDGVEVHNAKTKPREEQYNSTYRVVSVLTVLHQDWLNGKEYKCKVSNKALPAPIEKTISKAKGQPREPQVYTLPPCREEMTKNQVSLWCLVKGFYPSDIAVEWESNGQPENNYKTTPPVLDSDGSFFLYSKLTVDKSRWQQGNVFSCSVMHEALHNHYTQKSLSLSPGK
chain: B1 chain
IFN-γ release, EC50 [3]: 0.212 nM | IFN-γ release, Maximum [3]: 640 pg/mL | IL-2 release, EC50 [3]: 0.795 nM | IL-2 release, Maximum [3]: 23.6 pg/mL | IL-6 release, EC50 [3]: 0.128 nM | IL-6 release, Maximum [3]: 68.5 pg/mL | IL-10 release, EC50 [3]: 0.208 nM | IL-10 release, Maximum [3]: 129 pg/mL | NCI-H929 killing, EC50 [3]: 0.047 nM | NCI-H929 killing, Maximum killing rate % [3]: 57.5% | TNF-α release, EC50 [3]: 0.197 nM | TNF-α release, Maximum [3]: 894 pg/mL | Maximum MFI [4]: 17000 MFI | Maximum MFI [5]: 9710 MFI | KD ratio (cy BCMA/hu BCMA) [6]: 0.87 | Kd [7]: 0.225 nM | koff [7]: 0.000107 s⁻¹ | kon [7]: 474000 M⁻¹ s⁻¹ | Kd [8]: 0.195 nM | koff [8]: 7.12e-05 s⁻¹ | kon [8]: 365000 M⁻¹ s⁻¹

B3: PR001046, anti-BCMA HCAb antibody (clone 1005P63B7) (antibody, human IgG1, V domains shown)
VH: EVQLVETGGGLIQPGGSLRLSCAASGFTVSDNYMTWVRQAPGKGLEWVSVIFSGGNTYYADSVKGRFTISRDNAKNTLYLQMNSLRAEDTALYYCARRNYDDTRGTDVFDIWGQGTMVTVSS
KD ratio (cy BCMA/hu BCMA) [6]: 1.54 | Kd [7]: 0.0775 nM | koff [7]: 3.56e-05 s⁻¹ | kon [7]: 459000 M⁻¹ s⁻¹ | Kd [8]: 0.119 nM | koff [8]: 7.54e-05 s⁻¹ | kon [8]: 633000 M⁻¹ s⁻¹

B4: PR000274, anti-BCMA monoclonal antibody CA8-J6M0 (antibody, human IgG1, kappa, V domains shown)
VH: QVQLVQSGAEVKKPGSSVKVSCKASGGTFSNYWMHWVRQAPGQGLEWMGATYRGHSDTYYNQKFKGRVTITADKSTSTAYMELSSLRSEDTAVYYCARGAIYDGYDVLDNWGQGTLVTVSS
VL: DIQMTQSPSSLSASVGDRVTITCSASQDISNYLNWYQQKPGKAPKLLIYYTSNLHSGVPSRFSGSGSGTDFTLTISSLQPEDFATYYCQQYRKLPWTFGQGTKLEIKR
notes: also called Positive control 1; CA8-J6M0 hIgG1
KD ratio (cy BCMA/hu BCMA) [6]: 0.06 | Kd [7]: 0.655 nM | koff [7]: 0.000135 s⁻¹ | kon [7]: 206000 M⁻¹ s⁻¹ | Kd [8]: 0.0388 nM | koff [8]: 7.76e-06 s⁻¹ | kon [8]: 200000 M⁻¹ s⁻¹
